Publication PMC6026317, “Molecular elements in FGF19 and FGF21 defining KLB/FGFR activity and specificity” (Molecular Metabolism, 2018)
Entries after “also recorded” stand apart in the source; their conditions may differ.

Experiments:
293/KL cells = test: Agonist pERK assay in 293/KL cells; format: cell-based, human; conditions: n = 3
Protocol: (§1) 293T HEK cells expressing KLB (or KL) or Hep3B cells were plated to 5–6 x 10^4 cells/well density in 96-well cell culture plate coated with poly-D-Lysine (Corning). The cells were serum starved for four hours in 0.1% BSA fraction V (ThermoFisher) containing media prior to treatment with protein and/or an antagonist peptide at the mentioned concentrations for 10 min at 37° C. For the antagonist assays, a chosen fixed dose within the range of 0.8–30 nM (depending on the cell type) of FGF21 or FGF19 stimulant was added to all the wells. BaF3 cells expressing human KLB/FGFR1c or human KLB/FGFR4-1c chimera were seeded at 5 × 10^5 cells/well density in 96-well cell culture plate and serum-starved overnight. FGF21/19 analogs were diluted in 0.02% Tween-20 containing RPMI1640 medium and the cells were treated for 15 min at 37° C. […] Phosphorylated ERK1/2 (pERK) levels were subsequently recorded by EnSpire Alpha or Envision Multilabel plate reader (Perkin Elmer). […]
(§2) All cellular phosphorylation data were analyzed using 3-parameter non-linear regression curve in GraphPad Prism 7. […] Each peptide and protein analog was tested in triplicates in three independent experiments (n = 3), and normalized graphs plotted are expressed as mean ± SD unless otherwise noted.

293/KLB cells = test: Agonist pERK AlphaLISA assay in 293/KLB cells; format: cell-based, human; conditions: 10 min at 37° C, n = 3
Protocol: 293T HEK cells expressing KLB (or KL) or Hep3B cells were plated to 5–6 x 10^4 cells/well density in 96-well cell culture plate coated with poly-D-Lysine (Corning). The cells were serum starved for four hours in 0.1% BSA fraction V (ThermoFisher) containing media prior to treatment with protein and/or an antagonist peptide at the mentioned concentrations for 10 min at 37° C. For the antagonist assays, a chosen fixed dose within the range of 0.8–30 nM (depending on the cell type) of FGF21 or FGF19 stimulant was added to all the wells. BaF3 cells expressing human KLB/FGFR1c or human KLB/FGFR4-1c chimera were seeded at 5 × 10^5 cells/well density in 96-well cell culture plate and serum-starved overnight. FGF21/19 analogs were diluted in 0.02% Tween-20 containing RPMI1640 medium and the cells were treated for 15 min at 37° C. Following the respective cell treatments, the cells were lysed (with lysis buffer provided in the kit) for 10 min at room temperature on a shaker and the lysate was mixed with reaction mixture (consisting of reaction buffer, activation buffer, acceptor and donor beads provided in the kit). Phosphorylated ERK1/2 (pERK) levels were subsequently recorded by EnSpire Alpha or Envision Multilabel plate reader (Perkin Elmer). The cell assays corresponding to 293/KLB or Hep3B cells were carried out with AlphaLISA SureFire Ultra pERK1/2 (Thr 202/Tyr204) kit (Perkin Elmer), and BaF3 cells were done using AlphaScreen pERK1/2 (Thr202/Tyr204) kit (Perkin Elmer).
as §2, with “7. Graphs are represented as relative maximal (100%) response of the positive control. All other test analog signals were adjusted accordingly as % values.” for “7.”

human FGFR1/KLB = test: Agonist pERK AlphaScreen assay in BaF3 cells, FGFR1/KLB; format: cell-based; conditions: BaF3 cells co-expressing KLB and FGFR1; 15 min at 37° C; n = 3
Text: (§3) For generating receptor specific BaF3 cell line, human FGFR1c cDNA was cloned into pMXs-IRES-Puro vector (Cell Biolabs) to generate the expression plasmid pMX-FGFR1c-IRES-Puro. Human FGFR4 sequence was re-engineered to enhance signaling by constructing chimeric cDNA encoding the extracellular region of FGFR4 fused to the intracellular region and tyrosine kinase domain of FGFR1c, and the chimeric sequence was cloned into pMX-IRES-Puro vector to generate the expression plasmid pMX-chimeric FGFR4-1c-IRES-Puro. Human KLB cDNA was cloned into pMXs-IRES-Neo vector (Cell Biolabs) to generate expression plasmid pMX-KLB-IRES-Neo. BaF3 cells were transfected with pMX-FGFR1c-IRES-Puro and pMX- FGFR4-1c chimera-IRES-Puro expression plasmids respectively by electroporation (Xcell machine, Bio-Rad, 950 μF, 370V). Cells were selected with media containing 1 μg/ml Puromycin for 10–12 days. […]
(§4) 293T HEK cells expressing KLB (or KL) or Hep3B cells were plated to 5–6 x 10^4 cells/well density in 96-well cell culture plate coated with poly-D-Lysine (Corning). […] Phosphorylated ERK1/2 (pERK) levels were subsequently recorded by EnSpire Alpha or Envision Multilabel plate reader (Perkin Elmer). […]
(§5) All cellular phosphorylation data were analyzed using 3-parameter non-linear regression curve in GraphPad Prism 7. […]

[1] = system: diet-induced obese (DIO) mice; test: In vivo FGF21 agonism study in DIO mice; set-up: species or system mouse; conditions: for Body weight change: daily sc 0.1, 0.3 or 1 mg/kg for 7 days, n = 8
Text: (§6) All animal studies were approved by and performed according to the guidelines of the Institutional Animal Care and Use Committee of the University of Cincinnati (Cincinnati, USA). Eight-week old male C57BL/6J mice (Jackson Laboratories) were given ad libitum access to either a chow diet (lean mice), or a high-fat high-sugar diet (HFD, DIO mice) containing 58% kcal from fat (Research Diets, catalog# D12331). For DIO mice, animals were maintained on the HFD for a minimum of 3 months prior to initiation of the pharmacological studies. The mice were maintained at 22 °C on a 12-h light–dark cycle with free access to water. Before the beginning of the studies, mice were randomized into treatment groups according to body weight. All injections and tests were performed during the light cycle with a group size of n = 8.
Mice were administered vehicle, FGF21 or FGF21-19A (0.1, 0.3 and 1 mg/kg) daily via sc injections and their body weight measurements were made on alternative days. At the end of 7 day treatment, blood was collected from tail veins using EDTA-coated microvette tubes (Sarstedt), immediately placed on ice, centrifuged at 5000 × g and 4 °C for 10 min, and plasma was stored at −80 °C until analyzed. Triglycerides and cholesterol levels were analyzed using colorimetric assay (Thermo Fisher).
Statistical analyses for in vivo experiments were performed on data using a one- (Figure 5A,B and 5D) or two-way (Figure 5C) ANOVA followed by Tukey post hoc multiple comparison analysis. All results are presented as mean ± SEM, n = 5–8, and P < 0.05 was considered significant. Group size estimations were based upon a power calculation to minimally yield an 80% chance to detect a significant difference in body weight of P < 0.05.

[2] = system: human FGFR4-1c chimera/KLB; test: Agonist pERK AlphaScreen assay in BaF3 cells, FGFR4-1c chimera/KLB; format: cell-based; conditions: BaF3 cells co-expressing KLB and FGFR4-1c chimera; 15 min at 37° C; n = 3
Text: as §3, §4, §5

lean (C57BL/6J) mice = test: In vivo peptide antagonism study, cFos and EGR1 mRNA in pancreas and eWAT; set-up: species or system mouse; conditions: 1 mg/kg sc, one hour, WAT and pancreas
Text: as §6
Mice were administered vehicle, FGF21 (1 mg/kg), or FGF19 (1 mg/kg) alone or in combination with 19C26,A^26 (30 mg/kg), (dosed 15 min prior to FGF21 or FGF19 administration) via sc injections. One-hour post FGF21 or FGF19 dosing, the mice were sacrificed and their plasma, pancreas, and epididymal white adipose tissue (eWAT) were harvested for analyses. […] Following reverse transcription, levels of cFos and early growth response-1 (EGR1) mRNA levels were subsequently probed by quantitative PCR (ThermoFisher) and analyzed by ΔΔCT method. […]

Hep3B cells = test: Agonist pERK AlphaLISA assay in Hep3B cells; format: cell-based, human; conditions: 10 min at 37° C, n = 3
Protocol: as §1, §2

[3] = daily sc 0.1, 0.3 or 1 mg/kg, day 7

B1: FGF23: FGF23 (#Q9GZV9: 25–251) (protein, UniProt Q9GZV9 25-251, looked up)
Fibroblast growth factor 23: YPNASPLLGSSWGGLIHLYTATARNSYHLQIHKNGHVDGAPHQTIYSALMIRSEDAGFVVITGVMSRRYLCMDFRGNIFGSHYFDPENCRFQHQTLENGYDVYHSPQYHFLVSLGRAKRAFLPGMNPPPYSQFLSRRNEIPLIHFNTPIPRRHTRSAEDDSERDPLNVLKPRARMTPAPASCSQELPSAEDNSPMASDPLGVVRGGRVNTHAGGTGPEGCRPFAKFI
pERK agonist activity, in words (293/KL cells): significantly more potent than FGF21

B2: FGF21,A^164: Native FGF21 with D164A substitution (protein, UniProt Q9NSA1 29-209, looked up, variant D164A)
Fibroblast growth factor 21: HPIPDSSPLLQFGGQVRQRYLYTDDAQQTEAHLEIREDGTVGGAADQSPESLLQLKALKPGVIQILGVKTSRFLCQRPDGALYGSLHFDPEACSFRELLLEDGYNVYQSEAHGLPLHLPGNKSPHRDPAPRGPARFLPLPGLPPALPEPPGILAPQPPDVGSSAPLSMVGPSQGRSPSYAS
pERK agonist activity, in words (293/KLB cells): only negligible activity

B3: FGF21: Human FGF21 (UniProtKB #Q9NSA1 29–209, designated 1–181) (protein)
chain: HPIPDSSPLLQFGGQVRQRYLYTDDAQQTEAHLEIREDGTVGGAADQSPESLLQLKALKPGVIQILGVKTSRFLCQRPDGALYGSLHFDPEACSFRELLLEDGYNVYQSEAHGLPLHLPGNKSPHRDPAPRGPARFLPLPGLPPALPEPPGILAPQPPDVGSSDPLSMVGPSQGRSPSYAS
modifications: left off: SUMO (yeast), end not stated, cleaved | His6, end not stated, state not stated
pERK agonist activity, in words (human FGFR1/KLB): active | pERK agonist activity, in words (293/KLB cells): nanomolar potencies | Body weight change [1]: induced weight loss in a dose-dependent manner | Circulating insulin [1, 3]: potently reduced circulating insulin when compared to vehicle treatment | pERK agonist activity, in words [2]: minimal signaling | cFos and EGR1 transcriptional activity, FGF alone (lean (C57BL/6J) mice): induced robust transcriptional activity in each tissue

B4: FGF21-19A: Hybrid protein: FGF21 1–156 fused with FGF19 169–194 (K194A) (protein)
chain: HPIPDSSPLLQFGGQVRQRYLYTDDAQQTEAHLEIREDGTVGGAADQSPESLLQLKALKPGVIQILGVKTSRFLCQRPDGALYGSLHFDPEACSFRELLLEDGYNVYQSEAHGLPLHLPGNKSPHRDPAPRGPARFLPLPGLPPALPEPPGILAPQPLETDSMDPFGLVTGLEAVRSPSFEA
modifications: left off: SUMO (yeast), end not stated, cleaved | His6, end not stated, state not stated
pERK agonist activity, in words (Hep3B cells): significantly more potent when compared to native FGF21; also recorded: ten-fold-enhanced in vitro potency | pERK agonist activity, in words (293/KLB cells): significantly more potent when compared to native FGF21; also recorded: ten-fold-enhanced in vitro potency | Body weight change [1]: dramatically more potent at each corresponding dose | Circulating insulin [1, 3]: potently reduced circulating insulin when compared to vehicle treatment | Fasted plasma glucose, difference to native FGF21 [1, 3]: statistically different only at the 0.3 mg/kg dose | Plasma cholesterol ([1]; daily sc 0.1, 0.3 or 1 mg/kg, end of 7 day treatment): plasma cholesterol was lowered
